# Laboratory results as given in patent US20210061911A1 (MacroGenics, published 2021).
# T1: Human CD123-His (human, UniProt P26951 19-305)
# T1 construct: also called interleukin 3 receptor alpha; IL-3Rα; not shown: His tag
# T1 sequence (looked up): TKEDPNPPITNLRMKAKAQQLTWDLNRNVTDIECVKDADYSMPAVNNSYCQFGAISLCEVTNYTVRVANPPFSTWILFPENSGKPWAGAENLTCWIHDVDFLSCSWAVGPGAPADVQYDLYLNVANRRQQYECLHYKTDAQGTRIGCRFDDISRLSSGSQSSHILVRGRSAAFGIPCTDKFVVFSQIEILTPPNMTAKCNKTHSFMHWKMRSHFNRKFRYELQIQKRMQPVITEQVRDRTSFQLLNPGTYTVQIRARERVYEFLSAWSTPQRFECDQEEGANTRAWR
# Experiments:
# Human CD123-His = molecular target: T1, Human CD123-His; experiment: kinetic binding analysis, method not given
# Cynomolgus CD123-His = molecular target: T2, Cynomolgus CD123-His (cynomolgus monkey); experiment: kinetic binding analysis, method not given
# T2 construct: also called cynomolgus monkey CD123
binder,measurement,setting,value
"DART-A, sequence-optimized CD123×CD3 bi-specific monovalent diabody (bispecific antibody, no Fc; also called CD123×CD3 DART molecule) chain 1: QAVVTQEPSLTVSPGGTVTLTCRSSTGAVTTSNYANWVQQKPGQAPRGLIGGTNKRAPWTPARFSGSLLGGKAALTITGAQAEDEADYYCALWYSNLWVFGGGTKLTVLGGGGSGGGGEVQLVQSGAELKKPGASVKVSCKASGYTFTDYYMKWVRQAPGQGLEWIGDIIPSNGATFYNQKFKGRVTITVDKSTSTAYMELSSLRSEDTAVYYCARSHLLRASWFAYWGQGTLVTVSSGGCGGGEVAALEKEVAALEKEVAALEKEVAALEK chain 2: DFVMTQSPDSLAVSLGERVTMSCKSSQSLLNSGNQKNYLTWYQQKPGQPPKLLIYWASTRESGVPDRFSGSGSGTDFTLTISSLQAEDVAVYYCQNDYSYPYTFGQGTKLEIKGGGSGGGGEVQLVESGGGLVQPGGSLRLSCAASGFTFSTYAMNWVRQAPGKGLEWVGRIRSKYNNYATYYADSVKDRFTISRDDSKNSLYLQMNSLKTEDTAVYYCVRHGNFGNSYVSWFAYWGQGTLVTVSSGGCGGGKVAALKEKVAALKEKVAALKEKVAALKE",kon,Human CD123-His,160000 M⁻¹ s⁻¹
same,kon,Cynomolgus CD123-His,150000 M⁻¹ s⁻¹
